Reference: patent US20220064303A1 (GIGAGEN, published 2022)

Columns and labels:
[1] = biological target: CTLA-4 on CTLA-4 effector cells (CTLA-4 Blockade Bioassay, Promega) (UniProt P16410 36-223, limits assumed); test: cell-based or functional assay
[2] = biological target: T1, Cyno CTLA4 (cyno, UniProt G7PL88 36-161); test: BLI (Octet Red96), mAb on AHC biosensor, antigen as analyte
T1 construct: Soluble antigen used as analyte in BLI
Experimental: The binding specificity and affinity of each full-length antibody towards CTLA-4 were determined using biolayer interferometry (BLI) and/or surface plasmon resonance (SPR). Anti-cyno CTLA-4 and anti-mouse CTLA-4 affinities were tested using ForteBio (BLI). Anti-human CTLA-4 affinities were measured using Carterra (SPR).
For BLI, antibodies were loaded onto an Anti-Human IgG Fc (AHC) biosensor using the Octet Red96 system (ForteBio). Loaded biosensors were dipped into antigen dilutions beginning at 300 nM, with 6 serial dilutions at 1:3. Kinetic analysis was performed using a 1:1 binding model and global fitting.

Chain of CTLA-4 on CTLA-4 effector cells (CTLA-4 Blockade Bioassay, Promega) (P16410 36-223 limits assumed): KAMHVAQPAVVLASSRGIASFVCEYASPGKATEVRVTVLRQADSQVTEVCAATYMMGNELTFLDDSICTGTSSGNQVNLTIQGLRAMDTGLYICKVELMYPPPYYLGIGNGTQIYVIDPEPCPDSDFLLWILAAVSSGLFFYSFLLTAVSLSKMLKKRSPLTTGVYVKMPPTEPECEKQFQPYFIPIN
T1 sequence (G7PL88 entry or part of it): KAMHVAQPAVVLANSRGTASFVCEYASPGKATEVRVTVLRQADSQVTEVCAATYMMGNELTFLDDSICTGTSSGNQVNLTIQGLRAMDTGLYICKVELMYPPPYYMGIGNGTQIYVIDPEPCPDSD

B1: A23 (antibody, V domains shown)
VH: QVQLVQSGAEVKKPGASVKVSCKASGYTFTSYGISWVRQAPGQGLEWMGWISAYNGNTYYAQKFQGRVTMTTDTSTSTAYVELRSLRSDDTAVYYCARVTGRDAFDIWGQGTMVTVSS
VL: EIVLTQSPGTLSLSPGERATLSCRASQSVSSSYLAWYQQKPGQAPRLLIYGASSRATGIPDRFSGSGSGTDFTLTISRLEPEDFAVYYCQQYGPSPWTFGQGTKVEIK
B1 was tested, and the “Promega assay % inhibition” value [1] was 0%.

B2: Ipilimumab (antibody, V domains shown)
VH: QVQLVESGGGVVQPGRSLRLSCAASGFTFSSYTMHWVRQAPGKGLEWVTFISYDGNNKYYADSVKGRFTISRDNSKNTLYLQMNSLRAEDTAIYYCARTGWLGPFDYWGQGTLVTVSS
VL: not shown
Binder B2 has a Kd [2] of 1.3 nM.

B3: A28 (antibody, V domains shown)
VH: QVQLVESGGGVVQPGRSLGLSCAASGFTFSTYGMHWVRQAPGKGLEWVAVTLYDGSNKYYADSVKGRFTISRDNSKNTLYLQMNSLRAEDTAVYYCARASLTGSFDYWGQGTLVTVSS
VL: not shown
For B3, the “Promega assay % inhibition” value [1] was 0%.
